Results from US20140235553.

Legend:
[1] = test system: NTD-αA crystallin fusion protein
[2] = test system: NTD-αB crystallin fusion protein

lysozyme
CLA: suppression of chemically-induced aggregation of substrate protein [1]: These proteins also displayed CLA, as evidenced by suppressing the chemically-induced aggregation of substrate proteins such as lysozyme
CLA: suppression of chemically-induced aggregation of substrate protein [2]: These proteins also displayed CLA, as evidenced by suppressing the chemically-induced aggregation of substrate proteins such as lysozyme
